{"source": "paper PMC10030117", "about": "(eLife, 2023)", "binders": {"B1": {"name": "Antibody RAY53, full-length human IgG1 (antibody, V domains shown)", "VH": "QVQLVQSGAVVLKPGASVKLSCKASGFNIKNTYIHWLKQAPGQRLEWIGRIGPAIGNTIYAPKFQGKATITTDTSASTAYLELSSLRSEDTAVYYCARYYGSSYYYLDYWGQGTTVTVSS", "VL": "DIVMTQSPLSVPVTPGEPVSISCRSSKSLLHSNGNTYLYWFLQKPGQSPQLLIARMSTLASGVPDRFSGSGSGTAFTLKISRVEAEDVGVYYCMQYLEYPLTFGAGTKLEIK"}}, "biological_target": "Authentic MERS spike, full-length unstabilized, on the cell surface (MERS-CoV, strain , UniProt K9N5Q8)", "sequence (K9N5Q8 18-1353)": "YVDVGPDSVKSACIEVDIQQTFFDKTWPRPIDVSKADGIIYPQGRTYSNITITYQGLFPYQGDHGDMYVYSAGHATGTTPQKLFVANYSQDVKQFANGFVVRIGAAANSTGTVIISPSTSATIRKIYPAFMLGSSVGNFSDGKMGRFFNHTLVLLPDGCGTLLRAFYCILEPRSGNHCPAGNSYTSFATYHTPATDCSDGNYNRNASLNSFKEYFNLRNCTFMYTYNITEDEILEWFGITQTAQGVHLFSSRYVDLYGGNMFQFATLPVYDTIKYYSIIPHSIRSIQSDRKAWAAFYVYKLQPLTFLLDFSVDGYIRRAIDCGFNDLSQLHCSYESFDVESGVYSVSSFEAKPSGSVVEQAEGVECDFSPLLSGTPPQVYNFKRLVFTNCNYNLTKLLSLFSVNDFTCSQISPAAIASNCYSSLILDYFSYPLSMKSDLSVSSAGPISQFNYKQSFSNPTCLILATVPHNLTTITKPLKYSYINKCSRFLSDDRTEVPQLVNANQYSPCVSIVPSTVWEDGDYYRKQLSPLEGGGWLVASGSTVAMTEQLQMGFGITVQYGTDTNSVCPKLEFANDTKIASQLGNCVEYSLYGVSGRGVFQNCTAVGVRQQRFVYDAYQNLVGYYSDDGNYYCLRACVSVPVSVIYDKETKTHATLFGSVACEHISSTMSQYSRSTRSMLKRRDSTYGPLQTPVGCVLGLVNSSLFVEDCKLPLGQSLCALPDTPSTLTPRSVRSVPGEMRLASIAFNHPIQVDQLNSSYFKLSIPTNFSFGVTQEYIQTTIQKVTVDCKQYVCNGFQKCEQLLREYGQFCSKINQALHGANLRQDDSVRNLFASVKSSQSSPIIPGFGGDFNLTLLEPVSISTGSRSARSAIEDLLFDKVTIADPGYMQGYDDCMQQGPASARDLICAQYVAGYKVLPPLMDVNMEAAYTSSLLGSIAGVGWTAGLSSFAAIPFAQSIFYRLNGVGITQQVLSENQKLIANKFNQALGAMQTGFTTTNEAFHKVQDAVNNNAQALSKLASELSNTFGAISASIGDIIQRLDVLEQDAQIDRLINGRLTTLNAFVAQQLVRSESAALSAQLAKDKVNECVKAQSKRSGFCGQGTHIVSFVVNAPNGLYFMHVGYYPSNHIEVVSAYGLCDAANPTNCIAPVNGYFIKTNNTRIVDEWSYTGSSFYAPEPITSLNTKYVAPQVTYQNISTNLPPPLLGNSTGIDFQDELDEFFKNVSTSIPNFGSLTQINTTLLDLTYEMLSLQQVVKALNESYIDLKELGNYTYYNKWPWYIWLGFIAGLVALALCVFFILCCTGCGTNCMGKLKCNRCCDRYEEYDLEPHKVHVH", "experiment": "flow cytometry on cells", "conditions": "one partner purified", "data": [{"binder": "B1", "values": [{"measurement": "binding result", "value": "binds"}]}]}
